Reference: patent publication US8673306B2, “Compositions and methods of use for antibodies of dickkopf-1” (Novartis AG, priority 2006, dated 2014)
Marks after values point to notes of the source that are not given here.

T1: human recombinant, biotinylated DKK1 (Homo sapiens, UniProt O94907)
T1 sequence (O94907 32-266): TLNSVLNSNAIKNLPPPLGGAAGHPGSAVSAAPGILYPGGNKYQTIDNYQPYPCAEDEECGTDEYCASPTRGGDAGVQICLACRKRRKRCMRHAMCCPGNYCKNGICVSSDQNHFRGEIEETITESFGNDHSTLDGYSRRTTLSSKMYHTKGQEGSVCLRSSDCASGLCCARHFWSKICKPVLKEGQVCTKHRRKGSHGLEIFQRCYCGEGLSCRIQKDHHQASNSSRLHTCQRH

T2: DKK1/LRP6 binding on cell surface (Homo sapiens, UniProt O94907)
T2 construct: made in house; LRP6 and MESD transiently transfected into HEK293T
T2 sequence (O94907 32-266): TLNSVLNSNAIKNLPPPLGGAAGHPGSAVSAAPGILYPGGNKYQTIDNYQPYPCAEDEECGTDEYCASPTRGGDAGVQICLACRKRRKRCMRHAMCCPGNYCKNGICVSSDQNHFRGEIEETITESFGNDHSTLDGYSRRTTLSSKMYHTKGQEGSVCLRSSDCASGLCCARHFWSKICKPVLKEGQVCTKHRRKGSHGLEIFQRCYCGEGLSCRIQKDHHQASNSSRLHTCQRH

B1: MOR04455: parental HuCAL GOLD anti-DKK1 Fab; VH SEQ ID NO: 3, VL SEQ ID NO: 22 (antibody, listed as Homo sapiens, V domains shown)
VH: QVQLVESGGGLVQPGGSLRLSCAASGFTFSSYGMSWVRQAPGKGLEWVSGISGSGSYTYYADSVKGRFTISRDNSKNTLYLQMNSLRAEDTAVYYCARHYMDHWGQGTLVTVSS
VL: DIQMTQSPSSLSASVGDRVTITCRASQDISNYLHWYQQKPGKAPKLLIYGASNLQSGVPSRFSGSGSGTDFTLTISSLQPEDFAVYYCQQYDSIPMTFGQGTKVEIKRT
B2: MOR04456: parental HuCAL GOLD anti-DKK1 Fab; VH SEQ ID NO: 4, VL SEQ ID NO: 23 (antibody, listed as Homo sapiens, V domains shown)
VH: QVQLVESGGGLVQPGGSLRLSCAASGFTFNNYGMTWVRQAPGKGLEWVSGISGSGSYTYYADSVKGRFTISRDNSKNTLYLQMNSLRAEDTAVYYCARTIYMDYWGQGTLVTVSS
VL: DIVLTQSPATLSLSPGERATLSCRASQNLFSPYLAWYQQKPGQAPRLLIYGASNRATGVPARFSGSGSGTDFTLTISSLEPEDFATYYCQQYGDEPITFGQGTKVEIKRT
B3: MOR04454: parental HuCAL GOLD anti-DKK1 Fab; VH SEQ ID NO: 2, VL SEQ ID NO: 21 (antibody, listed as Homo sapiens, V domains shown)
VH: QVQLVESGGGLVQPGGSLRLSCAASGFTFSNYGLHWVRQAPGKGLEWVSSISYYGSSTYYADSVKGRFTISRDNSKNTLYLQMNSLRAEDTAVYYCARDGSHMDKPPGYVFAFWGQGTLVTVSS
VL: DIQMTQSPSSLSASVGDRVTITCRASQGIKNYLNWYQQKPGKAPKLLIGAASSLQSGVPSRFSGSGSGTDFTLTISSLQPEDFATYYCLQYYGMPPTFGQGTKVEIKRT
B4: MOR04516: parental HuCAL GOLD anti-DKK1 Fab; VH SEQ ID NO: 7, VL SEQ ID NO: 26 (antibody, listed as Homo sapiens, V domains shown)
VH: QVQLVQSGAEVKKPGESLKISCKGSGYSFTNYYIGWVRQMPGKGLEWMGIIYPTDSYTNYSPSFQGQVTISADKSISTAYLQWSSLKASDTAMYYCARGIPFRMRGFDYWGQGTLVTVSS
VL: DIVLTQPPSVSGAPGQRVTISCSGSSSNIGSSFVNWYQQLPGTAPKLLIGNNSNRPSGVPDRFSGSKSGTSASLAITGLQSEDEADYYCASFDMGSPNVVFGGGTKLTVLGQ
B5: MOR04461: parental HuCAL GOLD anti-DKK1 Fab; VH SEQ ID NO: 5, VL SEQ ID NO: 24 (antibody, listed as Homo sapiens, V domains shown)
VH: QVQLVESGGGLVQPGGSLRLSCAASGFTFSSYWMSWVRQAPGKGLEWVSGISYSGSNTHYADSVKGRFTISRDNSKNTLYLQMNSLRAEDTAVYYCARMGIDLDYWGQGTLVTVSS
VL: DIALTQPASVSGSPGQSITISCTGTSSDVGGFNYVSWYQQHPGKAPKLMIHDGSNRPSGVSNRFSGSKSGNTASLTISGLQAEDEADYYCSTWDMTVDFVFGGGTKLTVLGQ
B6: MOR04470: parental HuCAL GOLD anti-DKK1 Fab; VH SEQ ID NO: 6, VL SEQ ID NO: 25 (antibody, listed as Homo sapiens, V domains shown)
VH: QVQLVESGGGLVQPGGSLRLSCAASGFTFSSYWMSWVRQAPGKGLEWVSVISSDSSSTYYADSVKGRFTISRDNSKNTLYLQMNSLRAEDTAVYYCARHGIDFDHWGQGTLVTVSS
VL: DIALTQPASVSGSPGQSITISCTGTSSDLGGYNYVSWYQQHPGKAPKLMIYDVNNRPSGVSNRFSGSKSGNTASLTISGLQAEDEADYYCQSYASGNTKVVFGGGTKLTVLGQ
B7: MOR04907: affinity-optimized Fab from MOR04456; VH SEQ ID NO: 8, VL SEQ ID NO: 27 (antibody, listed as Homo sapiens, V domains shown)
VH: QVQLVESGGGLVQPGGSLRLSCAASGFTFNNYGMTWVRQAPGKGLEWVSGISGSGSYTYYADSVKGRFTISRDNSKNTLYLQMNSLRAEDTAVYYCARTIYMDYWGQGTLVTVSS
VL: DIVLTQSPATLSLSPGERATLSCRASQNLFSPYLAWYQQKPGQAPRLLIYGASNRATGVPARFSGSGSGTDFTLTISSLEPEDFAVYYCQQYLSLPTTFGQGTKVEIKRT
B8: MOR04914: affinity-optimized Fab from MOR04470; VH SEQ ID NO: 14, VL SEQ ID NO: 33 (antibody, listed as Homo sapiens, V domains shown)
VH: QVQLVESGGGLVQPGGSLRLSCAASGFTFSSYWMSWVRQAPGKGLEWVSVISSDSSSTYYADSVKGRFTISRDNSKNTLYLQMNSLRAEDTAVYYCARHGIDFDHWGQGTLVTVSS
VL: DIALTQPASVSGSPGQSITISCTGTSSDLGGYNYVSWYQQHPGKAPKLMIYDVNNRPSGVSNRFSGSKSGNTASLTISGLQAEDEADYYCQSYTYTPISPVFGGGTKLTVLGQ
B9: MOR04921: affinity-optimized Fab from MOR04461; VH SEQ ID NO: 12, VL SEQ ID NO: 31 (antibody, listed as Homo sapiens, V domains shown)
VH: QVQLVESGGGLVQPGGSLRLSCAASGFTFSSYWMSWVRQAPGKGLEWVSGISYSGSNTHYADSVKGRFTISRDNSKNTLYLQMNSLRAEDTAVYYCARMGIDLDYWGQGTLVTVSS
VL: DIALTQPASVSGSPGQSITISCTGTSSDVGGFNYVSWYQQHPGKAPKLMIHDGSNRPSGVSNRFSGSKSGNTASLTISGLQAEDEADYYCQTWATSPLSSVFGGGTKLTVLGQ
B10: MOR04954: affinity-optimized Fab from MOR04470; VH SEQ ID NO: 18, VL SEQ ID NO: 37 (antibody, listed as Homo sapiens, V domains shown)
VH: QVQLVESGGGLVQPGGSLRLSCAASGFTFSSYWMSWVRQAPGKGLEWVSVIEHKDKGGTTYYAASVKGRFTISRDNSKNTLYLQMNSLRAEDTAVYYCARHGIDFDHWGQGTLVTVSS
VL: DIALTQPASVSGSPGQSITISCTGTSSDLGGYNYVSWYQQHPGKAPKLMIYDVNNRPSGVSNRFSGSKSGNTASLTISGLQAEDEADYYCQSYASGNTKVVFGGGTKLTVLGQ
B11: MOR04910: affinity-optimized Fab from MOR04461; VH SEQ ID NO: 11, VL SEQ ID NO: 30; also used as MOR4910 IgG (antibody, listed as Homo sapiens, V domains shown)
VH: QVQLVESGGGLVQPGGSLRLSCAASGFTFSSYWMSWVRQAPGKGLEWVSGISYSGSNTHYADSVKGRFTISRDNSKNTLYLQMNSLRAEDTAVYYCARMGIDLDYWGQGTLVTVSS
VL: DIALTQPASVSGSPGQSITISCTGTSSDVGGFNYVSWYQQHPGKAPKLMIHDGSNRPSGVSNRFSGSKSGNTASLTISGLQAEDEADYYCQSWDVSPITAVFGGGTKLTVLGQ

test system: not listed separately; assay: Fab stability and aggregation (size exclusion chromatography); assay type: physicochemical; conditions: Fab after purification

**Q.** With B1 as the molecule, how does the Size exclusion chromatography read?
**A.** The Size exclusion chromatography was “# (monomeric portion >90%)”.

**Q.** For B2, which Size exclusion chromatography is on record?
**A.** Its Size exclusion chromatography is “# (monomeric portion >90%)”.

**Q.** Which Size exclusion chromatography does the source give for B3 here?
**A.** Its Size exclusion chromatography is “# (monomeric portion >90%)”.

**Q.** For B4, which Size exclusion chromatography is on record?
**A.** The Size exclusion chromatography was “# (monomeric portion >90%)”.

**Q.** For B5, which Size exclusion chromatography is on record?
**A.** Its Size exclusion chromatography is “# (monomeric portion >90%)”.

**Q.** Which Size exclusion chromatography does the source give for B6 here?
**A.** The Size exclusion chromatography was “# (monomeric portion >90%)”.

target: T1, human recombinant, biotinylated DKK1; assay: ELISA binding of matured Fabs in presence of 50% human serum; conditions: Fab 1 μg/ml
Method: Binding specificity of the matured Fabs in the presence of 50% human serum (HS) is determined. Serial dilutions of human recombinant, biotinylated DKK1 in TBS are Coated onto Neutravidin microtiter plates for 2 h at room temperature, from 8 ng DKK1 per well to a concentration of 125 ng DKK1 per well. After coating of the antigen, wells are blocked with TBS/0.05% Tween (TBS-T) supplemented with 1% BSA for 1 h at room temperature. Purified Fabs described above are diluted either in TBS/4% BSA or TBS/50% HS at a final concentration of 1 μg/ml, added to the coated and blocked wells and the plates are incubated for 1 h at room temperature. For detection, an anti-FLAG alkaline phosphatase (AP)-conjugated antibody (1:5000 dilution in TBST) and the fluorogenic substrate AttoPhos (Roche) are used. After each incubation, the wells of the microtiter plates are washed with TBST five times, except after the final incubation step with the labeled secondary antibody when wells are washed three times.
The fluorescence is measured in a TECAN Spectrafluor plate reader. Table 8 summarizes the binding activity of the optimized anti-DKK1 Fabs in presence of 50% human serum compared to binding activity in 4% BSA, which ranges from 83% to 100%. The median value is found to be 93%, thus the anti-DKK1 Fabs are found to fully bind to target in the presence of human serum.

**Q.** Which “Binding activity w/50% Human serum vs 4% BSA (%)” value does the source give for B7 here?
**A.** Its value is >83* %.

**Q.** For B8, which “Binding activity w/50% Human serum vs 4% BSA (%)” value is on record?
**A.** The value was 83* %.

**Q.** For B9, which “Binding activity w/50% Human serum vs 4% BSA (%)” value is on record?
**A.** Its value is 93* %.

**Q.** With B10 as the molecule, how does the “Binding activity w/50% Human serum vs 4% BSA (%)” value read?
**A.** Its value is >83* %.

target: T2, DKK1/LRP6 binding on cell surface; assay: DKK1-GFP binding to LRP6 on HEK293T cell surface, fluorescence microscopy; assay type: cell-based; conditions: HEK293T transfected with LRP6 and MESD
Method: However, upon co-transfection of LRP6 with a surface trafficking chaperone protein, MESD, GFP-tagged DKK1 can be detected on the cell surface, illustrating the specific nature of the DKK1/LRP6 interaction.
The ability of MOR04910 to inhibit DKK1/LRP6 binding on cell surface is measured by fluorescence microscopy. HEK293T cells are either mock transfected and transiently transfected with plasmids encoding LRP6 and MESD. Cells are incubated with DKK1-GFP conditioned medium together with anti-lysozyme FAb or anti-DKK1 FAb MOR04910 for 1 hour at 37° C., and examined by fluorescence microscopy. GFP fluorescence reflects DKK1-GFP binding to overexpressed LRP6 on the plasma membrane.

**Q.** For B11, which “inhibition of DKK1/LRP6 binding on cell surface” value is on record?
**A.** The value was “specifically blocks this interaction”.
